Measured values published in patent publication US7320863B2, “Thyroid sodium/iodide symporter and nucleic acid encoding same” (Albert Einstein College of Medicine of Yeshiva University, priority 1996, dated 2008).

Substrate: I
Assay: cells, lysate or membranes
Settings: other: initial velocity rates at 2 min, iodide 1.25 to 250 μM, oocytes 60 h after injection; 37.0 °C

B1: rat sodium/iodide symporter (Rattus norvegicus) (protein)
chain: MEGAEAGARATFGAWDYGVFATMLLVSTGIGLWVGLARGGQRSADDFFTGGRQLAAVPVGLSLAASFMSAVQVLGVPAEAARYGLKFLWMCAGQLLNSLLTAFLFLPIFYRLGLTSTYQYLELRFSRAVRLCGTLQYLVATMLYTGIVIYAPALILNQVTGLDIWASLLSTGIICTLYTTVGGMKAVVWTDVFQVVVMLVGFWVILARGVILLGGPRNVLSLAQNHSRINLMDFDPDPRSRYTFWTFIVGGTLVWLSMYGVNQAQVQRYVACHTEGKAKLALLVNQLGLFLIVASAACCGIVMFVYYKDCDPLLTGRISAPDQYMPLLVLDIFEDLPGVPGLFLACAYSGTLSTASTSINAMAAVTVEDLIKPRMPGLAPRKLVFISKGLSFIYGSACLTVAALSSLLGGGVLQGSFTVMGVISGPLLGAFTLGMLLPACNTPGVLSGLAAGLAVSLWVAVGATLYPPGEQTMGVLPTSAAGCTNDSVLLGPPGATNASNGIPSSGMDTGRPALADTFYAISYLYYGALGTLTTMLCGALISYLTGPTKRSSLGPGLLWWDLARQTASVAPKEDTATLEESLVKGPEDIPAVTKKPPGLKPGAETHPLYLGHDVETNL
  Km: 36 µM
